Experimental data reported in patent US7527793 (RUSH UNIVERSITY MEDICAL CENTER, dated 2009).
Blank lines part the entries; values can stand above or below the binder they belong to.

Assays:
HLA-A2.1 on T2 cells [1] = target: T1, HLA-A2.1 on T2 cells (human); assay: peptide binding to HLA-A2.1+ T2 cells, complex stability; Brefeldin A overnight (T2 alone 255)
T1 construct: Peptide-receptive HLA-A2.1 on T2 cells; also called HLA-A2.1 MHC class I molecules

HLA-A2.1 on T2 cells [2] = target: T1, HLA-A2.1 on T2 cells; assay: peptide binding to HLA-A2.1+ T2 cells, complex stability; Brefeldin A 6 hr (T2 alone 157)
HLA-A2.1 on T2 cells [3] = target: T1, HLA-A2.1 on T2 cells; assay: peptide binding to HLA-A2.1+ T2 cells, complex stability; Brefeldin A 2 hr (T2 alone 200)
HLA-A2.1 on T2 cells [4] = target: T1, HLA-A2.1 on T2 cells; assay: peptide binding to HLA-A2.1+ T2 cells, complex stability; Brefeldin A 4 hr (T2 alone 187)
HLA-A2.1 on T2 cells [5] = target: T1, HLA-A2.1 on T2 cells; assay: peptide binding to HLA-A2.1+ T2 cells, complex stability; no Brefeldin A (T2 alone 215)
HLA-A2.1 on T2 cells [6] = target: T1, HLA-A2.1 on T2 cells; assay: peptide binding to HLA-A2.1+ T2 cells, complex stability; Brefeldin A 0 hr (T2 alone 226)
HLA-A2.1 on T2 cells [7] = target: T1, HLA-A2.1 on T2 cells; assay: T2 peptide binding assay with beta2-microglobulin, anti-HLA-A2.1 staining, flow cytometry; index against T2 + beta2-microglobulin only (1.0)

binding score (HLA-A2.1 on T2 cells) (HLA-A2.1 on T2 cells [1]): 248 | binding score (HLA-A2.1 on T2 cells) (HLA-A2.1 on T2 cells [2]): 216 | binding score (HLA-A2.1 on T2 cells) (HLA-A2.1 on T2 cells [3]): 588 | binding score (HLA-A2.1 on T2 cells) (HLA-A2.1 on T2 cells [4]): 380 | binding score (HLA-A2.1 on T2 cells) (HLA-A2.1 on T2 cells [5]): 547 | binding score (HLA-A2.1 on T2 cells) (HLA-A2.1 on T2 cells [6]): 641
Binder: YIISGDSPV (Modified CD33 peptide) [YIISGDSPV (SEQ ID NO: 3)]

binding score (HLA-A2.1 on T2 cells) (HLA-A2.1 on T2 cells [1]): 479 | binding score (HLA-A2.1 on T2 cells) (HLA-A2.1 on T2 cells [2]): 594 | binding score (HLA-A2.1 on T2 cells) (HLA-A2.1 on T2 cells [3]): 810 | binding score (HLA-A2.1 on T2 cells) (HLA-A2.1 on T2 cells [4]): 745 | binding score (HLA-A2.1 on T2 cells) (HLA-A2.1 on T2 cells [5]): 701 | binding score (HLA-A2.1 on T2 cells) (HLA-A2.1 on T2 cells [6]): 728
Binder: YLISGDSPV (Modified CD33 peptide) [YLISGDSPV (SEQ ID NO: 7)]

binding score (HLA-A2.1 on T2 cells) (HLA-A2.1 on T2 cells [2]): 151 | binding score (HLA-A2.1 on T2 cells) (HLA-A2.1 on T2 cells [4]): 167 | binding score (HLA-A2.1 on T2 cells) (HLA-A2.1 on T2 cells [5]): 515 | binding score (HLA-A2.1 on T2 cells) (HLA-A2.1 on T2 cells [6]): 687
Binder: YIGSGDSPV (Modified CD33 peptide) [YIGSGDSPV (SEQ ID NO: 10)]

binding score (HLA-A2.1 on T2 cells) (HLA-A2.1 on T2 cells [1]): 593 | binding score (HLA-A2.1 on T2 cells) (HLA-A2.1 on T2 cells [2]): 680 | binding score (HLA-A2.1 on T2 cells) (HLA-A2.1 on T2 cells [3]): 929 | binding score (HLA-A2.1 on T2 cells) (HLA-A2.1 on T2 cells [4]): 839 | binding score (HLA-A2.1 on T2 cells) (HLA-A2.1 on T2 cells [5]): 591 | binding score (HLA-A2.1 on T2 cells) (HLA-A2.1 on T2 cells [6]): 840
Binder: YIISGISPV (Modified CD33 peptide) [YIISGISPV (SEQ ID NO: 6)]

binding score (HLA-A2.1 on T2 cells) (HLA-A2.1 on T2 cells [1]): 298 | binding score (HLA-A2.1 on T2 cells) (HLA-A2.1 on T2 cells [2]): 173 | binding score (HLA-A2.1 on T2 cells) (HLA-A2.1 on T2 cells [3]): 247 | binding score (HLA-A2.1 on T2 cells) (HLA-A2.1 on T2 cells [4]): 208 | binding score (HLA-A2.1 on T2 cells) (HLA-A2.1 on T2 cells [5]): 209 | binding score (HLA-A2.1 on T2 cells) (HLA-A2.1 on T2 cells [6]): 247
Binder: YIISGDSWV (Modified CD33 peptide) [YIISGDSWV (SEQ ID NO: 14)]

binding score (HLA-A2.1 on T2 cells) (HLA-A2.1 on T2 cells [1]): 157 | binding score (HLA-A2.1 on T2 cells) (HLA-A2.1 on T2 cells [2]): 168 | binding score (HLA-A2.1 on T2 cells) (HLA-A2.1 on T2 cells [3]): 334 | binding score (HLA-A2.1 on T2 cells) (HLA-A2.1 on T2 cells [4]): 217 | binding score (HLA-A2.1 on T2 cells) (HLA-A2.1 on T2 cells [5]): 428 | binding score (HLA-A2.1 on T2 cells) (HLA-A2.1 on T2 cells [6]): 426
Binder: YIISGDSPL (Modified CD33 peptide) [YIISGDSPL (SEQ ID NO: 15)]

binding score (HLA-A2.1 on T2 cells) (HLA-A2.1 on T2 cells [1]): 323 | binding score (HLA-A2.1 on T2 cells) (HLA-A2.1 on T2 cells [2]): 173 | binding score (HLA-A2.1 on T2 cells) (HLA-A2.1 on T2 cells [3]): 315 | binding score (HLA-A2.1 on T2 cells) (HLA-A2.1 on T2 cells [4]): 205 | binding score (HLA-A2.1 on T2 cells) (HLA-A2.1 on T2 cells [5]): 465 | binding score (HLA-A2.1 on T2 cells) (HLA-A2.1 on T2 cells [6]): 488
Binder: YIILGDSPV (Modified CD33 peptide) [YIILGDSPV (SEQ ID NO: 12)]

binding score (HLA-A2.1 on T2 cells) (HLA-A2.1 on T2 cells [1]): 325 | binding score (HLA-A2.1 on T2 cells) (HLA-A2.1 on T2 cells [2]): 172 | binding score (HLA-A2.1 on T2 cells) (HLA-A2.1 on T2 cells [3]): 257 | binding score (HLA-A2.1 on T2 cells) (HLA-A2.1 on T2 cells [4]): 208 | binding score (HLA-A2.1 on T2 cells) (HLA-A2.1 on T2 cells [5]): 263 | binding score (HLA-A2.1 on T2 cells) (HLA-A2.1 on T2 cells [6]): 301
Binder: YIIIGDSPV (Modified CD33 peptide) [YIIIGDSPV (SEQ ID NO: 11)]

binding score (HLA-A2.1 on T2 cells) (HLA-A2.1 on T2 cells [1]): 296 | binding score (HLA-A2.1 on T2 cells) (HLA-A2.1 on T2 cells [2]): 203 | binding score (HLA-A2.1 on T2 cells) (HLA-A2.1 on T2 cells [3]): 524 | binding score (HLA-A2.1 on T2 cells) (HLA-A2.1 on T2 cells [4]): 307 | binding score (HLA-A2.1 on T2 cells) (HLA-A2.1 on T2 cells [5]): 619 | binding score (HLA-A2.1 on T2 cells) (HLA-A2.1 on T2 cells [6]): 724
Binder: YIISGDLPV (Modified CD33 peptide) [YIISGDLPV (SEQ ID NO: 13)]

binding score (HLA-A2.1 on T2 cells) (HLA-A2.1 on T2 cells [1]): 366 | binding score (HLA-A2.1 on T2 cells) (HLA-A2.1 on T2 cells [2]): 609 | binding score (HLA-A2.1 on T2 cells) (HLA-A2.1 on T2 cells [3]): 882 | binding score (HLA-A2.1 on T2 cells) (HLA-A2.1 on T2 cells [4]): 692 | binding score (HLA-A2.1 on T2 cells) (HLA-A2.1 on T2 cells [5]): 603 | binding score (HLA-A2.1 on T2 cells) (HLA-A2.1 on T2 cells [6]): 677
Binder: ALISGDSPV (Modified CD33 peptide) [ALISGDSPV (SEQ ID NO: 16)]

Fluorescence Index (HLA-A2.1 on T2 cells [7]): 0.99 | binding score (HLA-A2.1 on T2 cells) (HLA-A2.1 on T2 cells [1]): 404 | binding score (HLA-A2.1 on T2 cells) (HLA-A2.1 on T2 cells [2]): 159 | binding score (HLA-A2.1 on T2 cells) (HLA-A2.1 on T2 cells [3]): 173 | binding score (HLA-A2.1 on T2 cells) (HLA-A2.1 on T2 cells [4]): 180 | binding score (HLA-A2.1 on T2 cells) (HLA-A2.1 on T2 cells [5]): 175 | binding score (HLA-A2.1 on T2 cells) (HLA-A2.1 on T2 cells [6]): 218
B1: CD33 peptide TIQLNVTYV (residues 226-234, SEQ ID NO: 9) (peptide)
peptide: TIQLNVTYV
notes: Native CD33 nonamer, extracellular domain; also called CD33226-234

Fluorescence Index (HLA-A2.1 on T2 cells [7]): 1.04
Binder: ALLALCLCL (also called CD33269-277) [CD33 peptide ALLALCLCL (residues 269-277, SEQ ID NO: 8)]
